Data published in article PMC9328939, “A Randomized Double‐Blind Placebo‐Controlled First‐In‐Human Phase 1 Trial of TransCon PTH in Healthy Adults” (Journal of Bone and Mineral Research, 2020).

Key:
Assay type in all cases: in vivo, human
[1] = tested on: healthy adults; experiment: Pharmacodynamics: albumin-adjusted serum calcium (sCa)
Procedure: Subjects attended a screening visit; those who met eligibility criteria were randomly assigned to a SAD or MAD cohort (n = 10/cohort; eight active and two placebo) and received a single or multiple dose(s) of TransCon PTH, respectively, via a syringe and 31G 8‐mm needle s.c. to the abdomen. […] Multiple TransCon PTH doses administered daily for 10 days ranged from 3.5 to 24 μg PTH(1‐34)/day. Throughout drug administration and for 4 days following the final dose, subjects remained housed for laboratory tests and safety monitoring.
The PD endpoints included albumin‐adjusted sCa, fractional excretion of calcium, sP, renal tubular maximum reabsorption of phosphate/glomerular filtration rate (TMP/GFR), intact endogenous PTH(1‐84), osteoblastic bone formation markers (serum bone‐specific alkaline phosphatase [BSAP] and P1NP), osteoclastic bone resorption markers (urine NTx and serum CTx), sMg, and 1,25‐dihydroxyvitamin D. PK samples were collected predose and at regular intervals postdose through 96 hours for the SAD cohorts and through day14 for the MAD cohorts.
Safety and PD samples were collected and analyzed by a local laboratory (SydPath Clinical Trials, Darlinghurst, Australia).

[2] = tested on: healthy adults; experiment: Pharmacodynamics: renal tubular maximum reabsorption of phosphate/GFR (TMP/GFR); conditions: MAD cohorts, near steady-state (days 8 to 10); linear regression on dose, p = .0022
Procedure: The ratio, TMP/GFR is based on sP, urine phosphate (uP), serum creatinine (sCr), and urine creatinine (uCr) and was calculated as follows[18]: (2) TMP/GFR=sP–uPxsCr/uCr
(§1) All statistical analyses were performed using SAS 9.3 or higher (SAS Institute, Inc., Cary, NC, USA). Summary statistics were reported for continuous data, including mean, standard deviation, standard error, median, minimum, and maximum, whereas number and percentage of subjects within treatment groups were reported for categorical data. For sP and TMP/GFR, a linear regression model was performed for the change from baseline, with dose and baseline as independent variables at near steady‐state. Near steady‐state was defined as the average of predose values on day 8, 9, and 10. Dose was defined as a continuous variable where placebo was considered zero.

[3] = tested on: healthy adults; experiment: Pharmacodynamics: fractional excretion of calcium (FECa); conditions: despite mild hypercalcemia, normal limits approximately 0.4% to 2%
Procedure: Twice‐daily 12‐hour urine samples (including calcium, phosphorus, magnesium, and creatinine) were also collected. In MAD cohorts, serum samples collected from TransCon PTH‐treated and placebo‐treated subjects predose and postdose on day 14 were analyzed for anti‐PTH binding antibodies by BioAgilytix (Durham, NC, USA) using an electrochemiluminescence bridging assay. Samples were analyzed using a multitiered approach consisting of a screening assay and a confirmatory assay.

[4] = Pharmacokinetics of Free PTH after a single s.c. dose of TransCon PTH (SAD cohorts); conditions: for Free PTH tmax: median (min-max); for Free PTH Cmax / Free PTH t½ / Free PTH AUC0-t: geometric mean (CV%)
Procedure: Subjects attended a screening visit; those who met eligibility criteria were randomly assigned to a SAD or MAD cohort (n = 10/cohort; eight active and two placebo) and received a single or multiple dose(s) of TransCon PTH, respectively, via a syringe and 31G 8‐mm needle s.c. to the abdomen. Single TransCon PTH doses ranged from 3.5 to 124 μg PTH(1‐34) (containing PTH(1‐34) [Bachem AG, Bubendorf, Switzerland], identical to the first 34 amino acids of rhPTH). Multiple TransCon PTH doses administered daily for 10 days ranged from 3.5 to 24 μg PTH(1‐34)/day.
The primary PK endpoints therefore included Free PTH (defined as the sum of Free PTH(1‐34) and Free PTH(1‐33)) as well as TransCon PTH.
The PK samples were analyzed by PRA Health Sciences (Assens, the Netherlands); Free PTH was quantified using protein precipitation, liquid‐liquid extraction, and solid‐phase extraction followed by ultra high‐performance liquid chromatography with tandem mass spectrometry detection measuring the two peptides, PTH(1‐34) and PTH(1‐33), by collection of both transitions simultaneously. Free PTH was calculated only if samples contained quantifiable levels of both Free PTH(1‐34) and Free PTH(1‐33); ie, above 1.40 and 0.958 pg/mL for Free PTH(1‐34) and Free PTH(1‐33), respectively. No lower limit of quantification was calculated for Free PTH because the ratio between Free PTH(1‐34) and Free PTH(1‐33) is not constant.
The PK parameters were calculated using Phoenix WinNonlin, version 6.4 (Certara USA, Inc., Princeton, NJ, USA). For Free PTH, tmax was defined as the time to maximum observed concentration and Cmax was defined as the maximum observed concentration. […] Peak‐to‐trough was calculated as the ratio of Cmax to C24h at steady‐state.

[5] = tested on: healthy adults; experiment: Pharmacodynamics: serum phosphate (sP); conditions: MAD cohorts, near steady-state (days 8 to 10); linear regression on dose, p = .0430
Procedure: as §1

[6] = tested on: healthy adults; experiment: Pharmacodynamics: serum magnesium (sMg); conditions: MAD cohorts; data not shown
[7] = single s.c. 72 μg PTH(1-34), n = 7
[8] = single s.c. 100 μg PTH(1-34), n = 8
[9] = single s.c. 124 μg PTH(1-34), n = 8

Substance: TransCon PTH: long-acting, essentially inactive prodrug: PTH(1-34) transiently bound to an inert 40 kDa mPEG carrier via a proprietary autocleaving linker
- albumin-adjusted sCa on day 11 ([1]; MAD, 24 μg PTH(1-34)/day x 10 days, n = 8, mean (± SD as printed), baseline 9.60 ± 0.06): 10.63 ± 0.22 mg/dL
- albumin-adjusted sCa on day 2 ([1]; SAD, single s.c. 124 μg PTH(1-34), n = 8, mean ± SD as printed, baseline 9.43 ± 0.09): 10.97 ± 0.20 mg/dL
- change in TMP/GFR from baseline [2]: significant dose‐dependent decrease
- FECa (spot) ([3]; MAD cohorts, daily doses x 10 days): remained essentially within normal limits
- FECa ([3]; SAD cohorts, data not shown): remained essentially within normal limits
- Free PTH tmax ([4]; single s.c. 48 μg PTH(1-34), healthy adults, n = 7): 8.0 (4.0–24.0) (n = 7) h
- Free PTH Cmax ([4]; single s.c. 48 μg PTH(1-34), healthy adults, plasma, UHPLC-MS/MS, n = 7): 6.61 (19.7) (n = 7) pg/mL
- Free PTH t½ ([4]; single s.c. 72 μg PTH(1-34), n = 5): 54.4 (18.9) (n = 5) h
- Free PTH Cmax [4, 7]: 7.67 (28.5) (n = 7) pg/mL
- Free PTH AUC0-t ([4]; single s.c. 72 μg PTH(1-34), healthy adults, plasma, UHPLC-MS/MS, n = 5): 420 (20.3) (n = 5) h*pg/mL
- Free PTH tmax [4, 7]: 4.0 (4.0–60.3) (n = 7) h
- Free PTH t½ ([4]; single s.c. 100 μg PTH(1-34), n = 7): 51.0 (32.4) (n = 7) h
- Free PTH AUC0-t [4, 8]: 594 (17.3) (n = 8) h*pg/mL
- Free PTH Cmax [4, 8]: 12.9 (11.7) (n = 8) pg/mL
- Free PTH tmax [4, 8]: 6.0 (4.0–8.0) (n = 8) h
- Free PTH t½ ([4]; single s.c. 124 μg PTH(1-34), n = 7): 55.7 (37.1) (n = 7) h
- Free PTH AUC0-t [4, 9]: 684 (36.9) (n = 8) h*pg/mL
- Free PTH Cmax [4, 9]: 13.8 (45.5) (n = 8) pg/mL
- Free PTH tmax [4, 9]: 4.0 (4.0–60.0) (n = 8) h
- change in serum phosphate (sP) from baseline [5]: significant dose‐dependent decrease
- change in serum magnesium (sMg) [6]: nonsignificant increase
